Nine molecules from paper PMC3991886, “Characterization of single-stranded DNA-binding proteins from the psychrophilic bacteria Desulfotalea psychrophila, Flavobacterium psychrophilum, Psychrobacter arcticus, Psychrobacter cryohalolentis, Psychromonas ingrahamii, Psychroflexus torquis, and Photobacterium profundum” (BMC Microbiology, 2014) can be followed below.

For series [1], the target named is Psychromonas ingrahamii single-stranded DNA-binding protein (Psychromonas ingrahamii). As to the kind of experiment: sedimentation in glycerol gradient; linear 15 to 30% (w/v) glycerol gradients in 50 mM Tris-HCl pH 7.5, 0.5 M NaCl, 1 mM EDTA, 5 mM beta-mercaptoethanol; 50 ul of 300 uM SSB; SW 60 rotor, 46,000 rpm, 24 h, 4°C; fractions by SDS-PAGE; compared with standard proteins, EcoSSB and PhaSSB.

The target is the same in series [2]. As to the kind of experiment: SEC; analytical gel filtration, Superdex 200 10/300 GL, 20 mM Tris-HCl pH 7.5, 150 mM NaCl, 10 mM EDTA, 0.5 ml/min; mass from a regression curve of standard proteins. For orientation: In gel filtration, larger molecules generally elute earlier.
The target is the same in series [3]. Nature of the series: cross-linking; 0.5% (v/v) glutaraldehyde, 15 min, 25°C, 10, 50 or 100 pmol SSB; quenched with 1 M Tris-HCl pH 8.0; SDS-PAGE (12%).
The target in series [4] is Photobacterium profundum single-stranded DNA-binding protein (Photobacterium profundum) (UniProt Q6LM83). Nature of the series: sedimentation in glycerol gradient; linear 15 to 30% (w/v) glycerol gradients in 50 mM Tris-HCl pH 7.5, 0.5 M NaCl, 1 mM EDTA, 5 mM beta-mercaptoethanol; 50 ul of 300 uM SSB; SW 60 rotor, 46,000 rpm, 24 h, 4°C; fractions by SDS-PAGE; compared with standard proteins, EcoSSB and PhaSSB.

Series [5] shares this target. As to the kind of experiment: SEC; analytical gel filtration, Superdex 200 10/300 GL, 20 mM Tris-HCl pH 7.5, 150 mM NaCl, 10 mM EDTA, 0.5 ml/min; mass from a regression curve of standard proteins.
For series [6] the target is unchanged. As to the kind of experiment: cross-linking; 0.5% (v/v) glutaraldehyde, 15 min, 25°C, 10, 50 or 100 pmol SSB; quenched with 1 M Tris-HCl pH 8.0; SDS-PAGE (12%).
The target of series [7] is Desulfotalea psychrophila single-stranded DNA-binding protein (Desulfotalea psychrophila). Nature of the series: sedimentation in glycerol gradient; linear 15 to 30% (w/v) glycerol gradients in 50 mM Tris-HCl pH 7.5, 0.5 M NaCl, 1 mM EDTA, 5 mM beta-mercaptoethanol; 50 ul of 300 uM SSB; SW 60 rotor, 46,000 rpm, 24 h, 4°C; fractions by SDS-PAGE; compared with standard proteins, EcoSSB and PhaSSB.

Series [8] has the same target. As to the kind of experiment: SEC; analytical gel filtration, Superdex 200 10/300 GL, 20 mM Tris-HCl pH 7.5, 150 mM NaCl, 10 mM EDTA, 0.5 ml/min; mass from a regression curve of standard proteins.
The target is the same in series [9]. As to the kind of experiment: cross-linking; 0.5% (v/v) glutaraldehyde, 15 min, 25°C, 10, 50 or 100 pmol SSB; quenched with 1 M Tris-HCl pH 8.0; SDS-PAGE (12%).
Series [10] addresses Psychroflexus torquis single-stranded DNA-binding protein (Psychroflexus torquis). Nature of the series: sedimentation in glycerol gradient; linear 15 to 30% (w/v) glycerol gradients in 50 mM Tris-HCl pH 7.5, 0.5 M NaCl, 1 mM EDTA, 5 mM beta-mercaptoethanol; 50 ul of 300 uM SSB; SW 60 rotor, 46,000 rpm, 24 h, 4°C; fractions by SDS-PAGE; compared with standard proteins, EcoSSB and PhaSSB.

For series [11] the target is unchanged. As to the kind of experiment: SEC; analytical gel filtration, Superdex 200 10/300 GL, 20 mM Tris-HCl pH 7.5, 150 mM NaCl, 10 mM EDTA, 0.5 ml/min; mass from a regression curve of standard proteins.
The target is the same in series [12]. As to the kind of experiment: cross-linking; 0.5% (v/v) glutaraldehyde, 15 min, 25°C, 10, 50 or 100 pmol SSB; quenched with 1 M Tris-HCl pH 8.0; SDS-PAGE (12%).
Series [13] addresses Psychrobacter cryohalolentis single-stranded DNA-binding protein (Psychrobacter cryohalolentis). As to the kind of experiment: sedimentation in glycerol gradient; linear 15 to 30% (w/v) glycerol gradients in 50 mM Tris-HCl pH 7.5, 0.5 M NaCl, 1 mM EDTA, 5 mM beta-mercaptoethanol; 50 ul of 300 uM SSB; SW 60 rotor, 46,000 rpm, 24 h, 4°C; fractions by SDS-PAGE; compared with standard proteins, EcoSSB and PhaSSB.

Series [14] shares this target. As to the kind of experiment: SEC; analytical gel filtration, Superdex 200 10/300 GL, 20 mM Tris-HCl pH 7.5, 150 mM NaCl, 10 mM EDTA, 0.5 ml/min; mass from a regression curve of standard proteins.
Series [15] shares this target. Nature of the series: cross-linking; 0.5% (v/v) glutaraldehyde, 15 min, 25°C, 10, 50 or 100 pmol SSB; quenched with 1 M Tris-HCl pH 8.0; SDS-PAGE (12%).
Series [16] concerns the target Psychrobacter arcticus single-stranded DNA-binding protein (Psychrobacter arcticus) (UniProt Q4FR27). As to the kind of experiment: sedimentation in glycerol gradient; linear 15 to 30% (w/v) glycerol gradients in 50 mM Tris-HCl pH 7.5, 0.5 M NaCl, 1 mM EDTA, 5 mM beta-mercaptoethanol; 50 ul of 300 uM SSB; SW 60 rotor, 46,000 rpm, 24 h, 4°C; fractions by SDS-PAGE; compared with standard proteins, EcoSSB and PhaSSB.

The target is the same in series [17]. As to the kind of experiment: SEC; analytical gel filtration, Superdex 200 10/300 GL, 20 mM Tris-HCl pH 7.5, 150 mM NaCl, 10 mM EDTA, 0.5 ml/min; mass from a regression curve of standard proteins.
Series [18] has the same target. As to the kind of experiment: cross-linking; 0.5% (v/v) glutaraldehyde, 15 min, 25°C, 10, 50 or 100 pmol SSB; quenched with 1 M Tris-HCl pH 8.0; SDS-PAGE (12%).
The subject of series [19] is DpsSSB (Desulfotalea psychrophila LSv54 (DSM 12343)). Nature of the series: fluorescence titration. The settings on record: 2-300 mM NaCl, site size 31 ± 2 nt, EMSA: 20 mM Tris-HCl pH 8.0, 100 mM NaCl, 1 mM EDTA, 25 C, 2% agarose in TAE, fluorescence titration: 20 mM Tris-HCl pH 8.0, 1 mM EDTA, 2/100/300 mM NaCl.
Series [20] concerns the molecule itself. Nature of the series: cross-linking; 0.5% (v/v) glutaraldehyde, 15 min, 25°C, 10, 50 or 100 pmol SSB; quenched with 1 M Tris-HCl pH 8.0; SDS-PAGE (12%).
Series [21] concerns the molecule itself. As to the kind of experiment: SEC; analytical gel filtration, Superdex 200 10/300 GL, 20 mM Tris-HCl pH 7.5, 150 mM NaCl, 10 mM EDTA, 0.5 ml/min; mass from a regression curve of standard proteins.
The target of the next series is T1, PcrSSB (Psychrobacter cryohalolentis K5 (DSM …, UniProt Q1Q9B8 1-1+=G+2-219, internal_change)).
T1 sequence: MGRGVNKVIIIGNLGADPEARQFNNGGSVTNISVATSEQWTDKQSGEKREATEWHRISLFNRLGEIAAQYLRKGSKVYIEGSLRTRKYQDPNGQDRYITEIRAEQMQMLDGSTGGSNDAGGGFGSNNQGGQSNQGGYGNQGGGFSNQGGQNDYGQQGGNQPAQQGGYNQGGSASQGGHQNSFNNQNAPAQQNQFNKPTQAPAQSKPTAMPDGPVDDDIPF
As to the kind of experiment: EMSA; complex I only; EMSA: 20 mM Tris-HCl pH 8.0, 100 mM NaCl, 1 mM EDTA, 25 C, 2% agarose in TAE; fluorescence titration: 20 mM Tris-HCl pH 8.0, 1 mM EDTA, 2/100/300 mM NaCl, 25 C. Conditions: protein: recombinant; tags: none (stop codon in reverse primer); chain copies: 4; label: 5'-fluorescein. On the technique in general: In EMSA bound probe runs differently from free probe, usually more slowly.

For the next series, the target named is T2, PinSSB (Psychromonas ingrahamii 37 (DSM 17664), UniProt A1T012 1-1+=G+2-222, internal_change).
T2 sequence: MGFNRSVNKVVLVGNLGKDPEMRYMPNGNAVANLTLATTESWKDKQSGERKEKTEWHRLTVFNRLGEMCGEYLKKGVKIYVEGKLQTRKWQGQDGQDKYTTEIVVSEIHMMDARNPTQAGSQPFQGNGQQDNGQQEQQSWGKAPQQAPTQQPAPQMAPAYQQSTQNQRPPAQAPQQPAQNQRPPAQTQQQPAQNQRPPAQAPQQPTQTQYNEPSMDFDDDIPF
Described as above. Conditions: protein: recombinant; tags: none (stop codon in reverse primer); chain copies: 4; label: 5'-fluorescein.

In a further series the target is T3, PtoSSB (Psychroflexus torquis ATCC 700755 (LMG …, UniProt K4IS14 1-151)).
T3 sequence: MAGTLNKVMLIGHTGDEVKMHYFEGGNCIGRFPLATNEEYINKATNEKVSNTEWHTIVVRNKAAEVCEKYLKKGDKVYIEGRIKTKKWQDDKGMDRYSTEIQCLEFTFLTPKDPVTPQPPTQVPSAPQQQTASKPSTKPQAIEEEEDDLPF
The series is described as above. Conditions: protein: recombinant; tags: none (stop codon in reverse primer); chain copies: 4; label: 5'-fluorescein.

A further series concerns the target T4, PprSSB (Photobacterium profundum (LMG 19446), UniProt Q6LM83 5-187).
T4 sequence: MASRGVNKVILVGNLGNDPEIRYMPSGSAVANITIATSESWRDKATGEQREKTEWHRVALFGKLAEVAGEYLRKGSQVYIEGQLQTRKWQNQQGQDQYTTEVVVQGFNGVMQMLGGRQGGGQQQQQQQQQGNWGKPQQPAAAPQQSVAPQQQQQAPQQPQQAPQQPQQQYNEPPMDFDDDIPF
The series is described as above. The settings on record: protein: recombinant; tags: none (stop codon in reverse primer); chain copies: 4; label: 5'-fluorescein.

Take “Psychromonas ingrahamii single-stranded DNA-binding protein (natural protein)”: the stoichiometry N in series [1] and in [3] was 4 in each case. The same molecule registered a stoichiometry N (mass monomers) in series [2] of 4.1.

“Photobacterium profundum single-stranded DNA-binding protein (from UniProt Q6LM83 1-187) (natural protein)”: the stoichiometry N in series [4] and in series [6] was 4 throughout. The molecule also had a stoichiometry N (mass monomers) in series [5] of 4.2.

As to “Desulfotalea psychrophila single-stranded DNA-binding protein (natural protein)”, the stoichiometry N (usually the number of molecules, sites or subunits per partner or assembly) was determined as 4 in series [7], 3.8 mass monomer in series [8] and 4 in series [9].

As for “Psychroflexus torquis single-stranded DNA-binding protein (natural protein)”, the stoichiometry N in series [10] and in [12] was 4 in each case. In addition, the stoichiometry N (mass monomers) in series [11] came to 4.2.

Regarding “Psychrobacter cryohalolentis single-stranded DNA-binding protein (natural protein)”, the stoichiometry N in [13] and in [15] was 4 throughout. In addition, the stoichiometry N (mass monomers) in [14] turned out to be 4.1.

Consider “Psychrobacter arcticus single-stranded DNA-binding protein (from UniProt Q4FR27 1-213) (natural protein)”, for which the stoichiometry N in series [16] and in series [18] was 4 in each case. The molecule also yielded a stoichiometry N (mass monomers) in [17] of 4.1.

“TTTTTTTTTTTTTTTTTTTTTTTTTTTTTTTTTTTTTTTTTTTTTTTTTTTTTTTTTTTTTTTTTTTTTTTTTTTT [(dT)76]” gave a binding signal (% Trp fluorescence quench at saturation) in series [19] of 93.

B1: Flavobacterium psychrophilum single-stranded DNA-binding protein (natural protein)
chain: MGNGTLNKVMLIGHLGEDIKMHYFDGGNCIGRFPLATNEIYINKSTNEKITSTEWHNVVVRNKAAEICEKYLSKGDKIYVEGRIKSRQWQAEDGTVKYTTEIQVTEFTFLNTKKDSEIVKTASEAPKTTSFDSTVENDLPF
notes: SSB of Flavobacterium psychrophilum JIP02/86 (LMG 13180), 140 amino acid residues including the N-terminal methionine, 15.9 kDa monomer; Cloned in pBAD/myc-HisA between NcoI and HindIII; the reverse primer carries the gene's stop codon, so the vector's C-terminal myc-His tag is probably not on the protein (surmised); The forward primer has two G that are not complementary to the gene, which adds …
As for B1, the “stoichiometry N” value came to 4 in [20] and 4.4 mass monomer in series [21].

B2: (dT)35 (ssDNA)
DNA: TTTTTTTTTTTTTTTTTTTTTTTTTTTTTTTTTTT
With B2, the binding result with PcrSSB, with PinSSB, with PtoSSB and in the series with PprSSB was “binds” in each case.
